The text below walks through data of paper PMC5394236.

The target in the assay is GST fused recombinant Pparγ LBD protein (UniProt P37231). The assay can be described thus: co-immunoprecipitation (IP: Flag) with immunoblot band intensity quantification. As to conditions: lysates of HEK293 cells transfected with Flag-Lrp1β-Wt or Mut mixed with GST fused recombinant Pparγ LBD protein; n=3; parent: est. 100; read off a plot.
UniProt P37231, sequence (P37231 whole entry, the tested form may be a part): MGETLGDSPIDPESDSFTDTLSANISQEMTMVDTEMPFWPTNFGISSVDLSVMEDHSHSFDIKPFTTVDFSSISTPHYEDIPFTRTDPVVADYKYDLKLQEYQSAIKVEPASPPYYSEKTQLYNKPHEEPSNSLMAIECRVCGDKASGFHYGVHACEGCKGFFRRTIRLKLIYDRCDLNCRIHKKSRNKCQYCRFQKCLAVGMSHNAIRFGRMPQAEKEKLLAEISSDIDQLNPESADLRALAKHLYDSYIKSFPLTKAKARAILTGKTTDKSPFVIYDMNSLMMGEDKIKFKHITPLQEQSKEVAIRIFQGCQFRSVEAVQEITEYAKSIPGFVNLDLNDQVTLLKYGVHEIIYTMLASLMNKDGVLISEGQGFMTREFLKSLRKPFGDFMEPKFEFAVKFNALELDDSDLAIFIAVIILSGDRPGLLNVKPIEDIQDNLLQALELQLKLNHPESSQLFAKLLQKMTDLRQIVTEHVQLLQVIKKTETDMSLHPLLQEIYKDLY

As for Flag-Lrp1β-Wt (VGGLL) L4487A; L4488A, the percent of parent came out at 13%.
